The RNAGym collection of RNA variant scans (doi:10.1073/pnas.2313332121)

B1: TPR t1 (parent)
chain: GACCAAUCUGCCCUCAGAGCUCGAGAACAUCUUCGGAUGCAGAGGAGGCAGGCUUCGGUGGCGCGAUAGCGCCAACGUCCUCAACCUCCAAUGCAUCCCACCACAUGAUGAUGCCUGAAGAGCCUUGGUUUUUUG

Variants of: B1
Test: polymerase ribozyme fitness, log enrichment relative to wild type (log ratio); higher = more active; in vitro selection for triplet polymerase activity
Outline: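 Fitness is a logarithmic measure of how a genotype enriched relative to the wild type, with replicate averages weighted by inverse variance. The logarithm uses base 2, and enrichment came from Illumina sequencing of input and output libraries. Those libraries were PCR-built, transcribed mutants of each subunit of a heterodimeric triplet polymerase ribozyme, passed through one triplicate in vitro selection round that included frozen incubation at −7 °C, gel excision of extended constructs and streptavidin-bead capture. Genotypes were kept only if they had ≥10 input reads and ≥1 read per output.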

Row | Variant | polymerase ribozyme fitness (log ratio)
1 | GACCAAUCUGCCCUCAGAGCUCGAGAACAUCUUCGGAUGCAGAAGAGGCAGGCUCCGGUGGCGCGAUAGCGCCAACGUCCACAACCUCCAAUGCAUCCCACCACAUGAUGAUGCCUGAAGAGCCUUGGUUUUUUG [G44A U55C U81A] | -2.83
2 | GACCAAUCUGCCCUCAGAGCUCGAGAACAUCUUCGGAUGCAGAAGAGGCAGGCUUCGGUGGCGCGAUAGCGCCAACGCCCUCAACCUCCAAUGCAUCCCACCACAUGAUGAUGCCUGAAGAGCCUUGGUUUUUUG [G44A U78C] | -1.33
3 | GACCAAUCUGCCCUCAGAGCUCGAGAACAUCUUCGGAUGCAGACGCGGCAGGCAUCGGUGGCGCGAUAGCGCCAACGUCCUCAACCUGCAAUGCAUUCCACCACAUGAUGAUCCCUGAAGAGCCUUGGUUUUUUG [G44C A46C U54A C88G C97U G113C] | -3.49
4 | GACCAAUCUGCCCUCAGAGCUCGAGAACAUCUUCGGAUGCAGACGAGGCGGGCUUCGGUGGCGCGAUAGCGCCAACGUCCUCAACCUCCAAUGCAUCCCACCACAUGAUGUUGCCUGAAGAGACUUGGUUUUUUU [G44C A50G A111U C123A G135U] | -5.29
5 | GACCAAUCUGCCCUCAGAGCUCGAGAACAUCUUCGGAUGCAGACGAGGCAGGCUUCGGUGGCGCGAUAGCGCCUACGUCCUCAACCUCCAAUGCAUCCCACCACAUGAUGAUGCCUGAAGAGCCUUGGUUUUUUG [G44C A74U] | -1.2
6 | GACCAAUCUGCCCUCAGAGCUCGAGAACAUCUUCGGAUGCAGACGAGGCAGGCUUCGGUGGCGCGAUAGCGCCAACGUCCUCACCCUCCAAUGCAUCCCACCACAUGAUGAUGCCUGAAGAGCCUUGGUUUUUUG [G44C A84C] | -0.969
7 | GACCAAUCUGCCCUCAGAGCUCGAGAACAUCUUCGGAUGCAGACGAGGCAGGCUUCGGUGGCGCGAUAGCGCCAACGUCCUCAUCCUCCAAUGCAUCCCACCACAUGAUGAUGCCUGAAGAGCCUUGGUUUUUUG [G44C A84U] | -1.11
8 | GACCAAUCUGCCCUCAGAGCUCGAGAACAUCUUCGGAUGCAGACGAGGCAGGCUUCGGUGGCGCGAUAGCGCCAACGUCCUCAACCUCCAGUGCAUCCCACCACAUGAUGAUGCCUGAAGAGCCUUGGUUUUUUG [G44C A91G] | -1.82
9 | GACCAAUCUGCCCUCAGAGCUCGAGAACAUCUUCGGAUGCAGACGAGGAAGGCUUCGGUGGCGCGAUAGCGCCAACGUCCUCAACCUCCAAUGCAUCCCAGCACAUGAUGAGGCCUGAAGAGCCUUGGUUGUUUG [G44C C49A C101G U112G U131G] | -4.71
10 | GACCAAUCUGCCCUCAGAGCUCGAGAACAUCUUCGGAUGCAGACGAGGCAGGAUUCGGUGGCGCGAUAGCGCCAACGUCCUCAACCUUCAAUGCAUCCCUCCACAUGAUGAUGCCUGAAGAGCCUUGGUUUUUUG [G44C C53A C88U A100U] | -0.527
11 | GACCAAUCUGCCCUCAGAGCUCGAGAACAUCUUCGGAUGCAGACGAGGCAGGGUUCGGUGGCGCGAUAGCGCCAACGUCCUCAACCUCCAAUGCAUCCCACCACAUGAUGAUGCCUGAAGAGCCUUGGUUUUUUG [G44C C53G] | -1.05
12 | GACCAAUCUGCCCUCAGAGCUCGAGAACAUCUUCGGAUGCAGACGAGGCAGGGUUCGGUGGCGCGAUAGCGCUAACGUCCUUAACCUCCAAUGCAUCCGACCACAUGAUGAUGCCUGAAGAGCGUUGGUUUUUUG [G44C C53G C73U C82U C99G C124G] | -7.17
13 | GACCAAUCUGCCCUCAGAGCUCGAGAACAUCUUCGGAUGCAGACGAGGCAGGUUUUGGUGGCGCGAUAGCGCCAACGUCCUCAACCUCCAAUGCAUCCCACCACAUGAUGAUGCUUUAAGAGCCUUGGUUUUUUA [G44C C53U C56U C115U G117U G135A] | -3.91
14 | GACCAAUCUGCCCUCAGAGCUCGAGAACAUCUUCGGAUGCAGACGAGGCAGGUUUCGGUGGCGCGAUAGCGCCAACGUCCUCAACAUCCAAUGCUUCCCAUCACAUGAUGAUGCCUGAAGAGCCUUGGUUUUUUG [G44C C53U C86A A95U C101U] | -3.19
15 | GACCAAUCUGCCCUCAGAGCUCGAGAACAUCUUCGGAUGCAGACGAGGCAGGCUUUGGUGGCGCGAUAGCGCCAACGUCCUCAACCUUCAAUGCAUCCCAUCACAUGAUUAUGCCUGAAGAGCCUUGGUUUUUUG [G44C C56U C88U C101U G110U] | -3.38
16 | GACCAAUCUGCCCUCAGAGCUCGAGAACAUCUUCGGAUGCAGACGAGGCAGGCUUCGGUGGAGCGAUAGCGCCAACAUCCUCAACCUCCAAUGCAUCCCACCACAUGAUGAUGCCUGAAGAGCCUUGGUUUUAUG [G44C C62A G77A U133A] | -4.24
17 | GACCAAUCUGCCCUCAGAGCUCGAGAACAUCUUCGGAUGCAGACGAGGCAGGCUUCGGUGGGGCGAUAGCGCCAACGUCCUCAACCUCCAAUGCAUCCCACCACAUGAUGAUGCCUGAAGAGCCUUGGUUUAUUG [G44C C62G U132A] | -2.39
18 | GACCAAUCUGCCCUCAGAGCUCGAGAACAUCUUCGGAUGCAGACGAGGCAGGCUUCGGUGGCGUGAUAGCGCCAACGUCCUCAACCUCCAAUGCAUCCCACCACAUGAUGGUGCCUGAAGAGCCUUGGUUUUAUG [G44C C64U A111G U133A] | -0.585
19 | GACCAAUCUGCCCUCAGAGCUCGAGAACAUCUUCGGAUGCAGACGAGGCAGGCUUCGGUGGCGCGAUAGGGCCAACGUCCUCAACCUCCAAUGCAUCCCACCACAUGAUGAUGCCUGAAGAGCCUUGGUUUUUUG [G44C C70G] | -3.8
20 | GACCAAUCUGCCCUCAGAGCUCGAGAACAUCUUCGGAUGCAGACGAGGCAGGCUUCGGUGGCGCGAUAGCGACAACGUCCUCAACCUCCAAUGCAUCCCACCACAUGAUGAUGCCUGAAGAGCCUUGGUUUUUUG [G44C C72A] | -0.169
21 | GACCAAUCUGCCCUCAGAGCUCGAGAACAUCUUCGGAUGCAGACGAGGCAGGCUUCGGUGGCGCGAUAGCGCCAAUGUCCGCAACCUCCAAUGCAUCCCACCACAUGAUGAUGCCUGAAGAGCCUUGGUUUUUUG [G44C C76U U81G] | -5.45

Row | Variant | polymerase ribozyme fitness (log ratio)
22 | GACCAAUCUGCCCUCAGAGCUCGAGAACAUCUUCGGAUGCAGACGAGGCAGGCUUCGGUGGCGCGAUAGCGCCAACGUCCUCAACGUCCAAUGCAUCCCACCACAUGAUGAUGCCUGAAGAGCCUUGGUUUUUUG [G44C C86G] | -1.54
23 | GACCAAUCUGCCCUCAGAGCUCGAGAACAUCUUCGGAUGCAGACGAGGCAGGCUUCGGUGGCGCGAUAGCGCCAACGUCCUCAACCUGCAAUGCAUCCCACCACAUGAUGAUGCCUGAAGAGCCUUGGUUUUUUG [G44C C88G] | -2.18
24 | GACCAAUCUGCCCUCAGAGCUCGAGAACAUCUUCGGAUGCAGACGAGGCAGGCUUCGGUGGCGCGAUAGCGCCAACGUCCUCAACCUCCAAUGUAUCCCACCACAUGAUGAUGCCUGAAGAGCCUUGGUUUUUUG [G44C C94U] | -1.02
25 | GACCAAUCUGCCCUCAGAGCUCGAGAACAUCUUCGGAUGCAGACGAGGCAGGCUUCGGUGGCGCGAUAGCGCCAACGUCCUCAACCUCCAAUGCAUCUCACCACAUGAUGAUGCCUGAAGAGCCUUGGUUUUUUG [G44C C98U] | -2.37
26 | GACCAAUCUGCCCUCAGAGCUCGAGAACAUCUUCGGAUGCAGACGAGGCAGGCUUCGGUGGCGCGAUAGCGCCAACGUCCUCAACCUCCAAUGCAUCCCACCACAUGAUGAUGACUGAAGAGCCUUGGUUUUUUG [G44C C114A] | -2.01
27 | GACCAAUCUGCCCUCAGAGCUCGAGAACAUCUUCGGAUGCAGACGACGUAGGCUUCGGUGGCGCGAUAGCGCCAACGUCCUCAACCUCCAAUGCAUACCACCACAUGAUGAUGCCUGAAGAGUCUUGGUUUUUUG [G44C G47C C49U C97A C123U] | -6.09
28 | GACCAAUCUGCCCUCAGAGCUCGAGAACAUCUUCGGAUGCAGACGACGCAGGCUUCGGUGGCCCGAUAGCGCCAACGUCCUCAACCUCUAAUGCAUCCCACCACAUGAUGAUGCCUGAAGAGCCUUGGUUUAUUG [G44C G47C G63C C89U U132A] | -4.25
29 | GACCAAUCUGCCCUCAGAGCUCGAGAACAUCUUCGGAUGCAGACGAGGCAUGCUUCGGUUGCGCGAUAGCGCCAACGUCCUCAACCUCCAAUGCAUCCCACCACAUGAUGAUGCCUGAAGAGUCUUGGUUUUUUG [G44C G51U G60U C123U] | -2.6
30 | GACCAAUCUGCCCUCAGAGCUCGAGAACAUCUUCGGAUGCAGACGAGGCAGACUUCGGUGGCGCGAUAGCGCCAACGUCCUCAACCUCCAAUGCAUCCCACCACAUGAUGAUGCCUGAAGAGCCUUAGUUUUUUG [G44C G52A G127A] | -3.02
31 | GACCAAUCUGCCCUCAGAGCUCGAGAACAUCUUCGGAUGCAGACGAGGCAGGCUUCUGUGGCUCGAUAGCGCCAACGUCCUCAACCUCCAAUGCAUCCCACCACAUGAUGAUGCCUGAAGAGCCUUGGUUUUUUG [G44C G57U G63U] | -2.08
32 | GACCAAUCUGCCCUCAGAGCUCGAGAACAUCUUCGGAUGCAGACGAGGCAGGCUUCGGUGACGCGAUAGCGCCAACGUCCUCAACCUCCAAUGCUUCCCACCACAUGAUAAUGCCUGAAGAGCCUUGGUUUUUUG [G44C G61A A95U G110A] | -1.72
33 | GACCAAUCUGCCCUCAGAGCUCGAGAACAUCUUCGGAUGCAGACGAGGCAGGCUUCGGUGCCGCGAUAGCGCCAACGUCCUCAACCUCCAAUGCAUCCCACCACAUGAUGAUGCCUGAAGAGCCUUGGUUUUUUG [G44C G61C] | -3.07
34 | GACCAAUCUGCCCUCAGAGCUCGAGAACAUCUUCGGAUGCAGACGAGGCAGGCUUCGGUGCCGCGAUAGCGCCAACGUCCUCAACCUCCAAUGCAUCCCCCCACAAGAUGAUGCCUGAAGAGCCUUGGUUUUUUG [G44C G61C A100C U106A] | -4.28
35 | GACCAAUCUGCCCUCAGAGCUCGAGAACAUCUUCGGAUGCAGACGAGGCAGGCUUCGGUGCCGCGAUAGCGCCAACGCCCUCAACCUCCAAUGCAUCACACCACAUGAUGAUUCCUGAAGAGCCUUGGUUUUUUG [G44C G61C U78C C98A G113U] | -7.8
36 | GACCAAUCUGCCCUCAGAGCUCGAGAACAUCUUCGGAUGCAGACGAGGCAGGCUUCGGUGUCGCGAUAGCGCCAACGUCCUCAACCUCCAAUGCAUCCCACAACAUGAUGAUGCCUGAAGAGCCUUGGUUUUUUG [G44C G61U C102A] | -2.81
37 | GACCAAUCUGCCCUCAGAGCUCGAGAACAUCUUCGGAUGCAGACGAGGCAGGCUUCGGUGGCACGAUAGCGCCAACGUCCUCAACCUCCAAUGCAUCCCACCACAUGAUGAUGCCUGAAGAGCCUUGGUUUUUUG [G44C G63A] | 0.0487
38 | GACCAAUCUGCCCUCAGAGCUCGAGAACAUCUUCGGAUGCAGACGAGGCAGGCUUCGGUGGCGCGAUAACGCCAACGUCCUCAACCUCCAAUGCAUCCCACCACAUGAUGAUGCCCGAAGAGUCUUGGUUUUUUG [G44C G69A U116C C123U] | -5.92
39 | GACCAAUCUGCCCUCAGAGCUCGAGAACAUCUUCGGAUGCAGACGAGGCAGGCUUCGGUGGCGCGAUAGCACCAACGUCCUCAACCUCCAAUGCAUCCCACCACAUGAUGAUGCCUGAAGAGCCUUGGUUUUUUG [G44C G71A] | -1.25
40 | GACCAAUCUGCCCUCAGAGCUCGAGAACAUCUUCGGAUGCAGACGAGGCAGGCUUCGGUGGCGCGAUAGCUCCAACGUCCUCAACCUCCAAUGCAUCCCACCACAUGUUCAUGCCUGAAGAGCCAUGGUUUUUUG [G44C G71U A108U G110C U125A] | -6.18
41 | GACCAAUCUGCCCUCAGAGCUCGAGAACAUCUUCGGAUGCAGACGAGGCAGGCAUCGGUGGCGCGAUAGCGCCAACGUCCUUAACCUCCAAUGCAUCCCACCACAUGAUGAUGGCUGAAGAGCCUUGGUUUUUUG [G44C U54A C82U C114G] | -4.01
42 | GACCAAUCUGCCCUCAGAGCUCGAGAACAUCUUCGGAUGCAGACGAGGCAGGCUCCGGUGGCGCGAUAGCGCCAACGUCCUCAACCUCCAAUGCAUCCCACCACAUGAUGAUGCCUGAAGAGCCUUGGUUUUUUG [G44C U55C] | -1.02
